Consider four molecules from paper PMC6123721 (2018).

B1: 6D8 single-chain Fv (scFv) (scFv, V domains shown)
VH: QVQLQQSGDELVKPGASVKLSCTVSGFNIKDDFIHWMKQRPEQGLEWIGRIDPANGYTKYAPKFQDKATMTADTSSNTAYLQLSSLASEDAAVYYCATYGVAYWGQGTLVTVSA
VL: DIVLTQSPASLAVSLGQRATISCKASQSVDHDGDSYMNWFQQKPGQSPKLLIYAASNLESGIPARFSGSGSGTDFTLNIHPVEEEDAATYYCQQTNEDPYTFGGGTKLEIK

Assay in all cases: ITC
(In general: In ITC the heat of successive injections is recorded.)

In one assay the target is FC27-MSP2.
The target of another assay is 3D7-MSP2.
In assay [1] the target is B1.

One may read the Kd as the concentration at which binding is half-saturated. Higher therefore signals weaker binding. For B1, the dissociation constant Kd with FC27-MSP2 worked out at 13 nM; with 3D7-MSP2, 61 nM. NAYNMSIRRSMAESKPSTGAG [3D7 MSP2 14-34 peptide (C-terminally extended epitope, 3D7 allele)]: in assay [1], the affinity, expressed as Kd, was 64 nM. In turn, NAYNMSIRRSMANEGSNTNSV [FC27 MSP2 14-34 peptide (C-terminally extended epitope, FC27 allele)] gave a dissociation constant (Kd) in assay [1] of 16 nM. Regarding NAYNMSIRR [MSP2 14-22 peptide (minimal 6D8 epitope of merozoite surface protein 2)], in assay [1], the equilibrium dissociation constant (Kd) is 6 nM.
